Test results as given in the supplement of paper PMC5998384.

What was measured:
HeLa Kyoto [1] = assay: solubility change mitosis vs G1/S (difference of NP-40 vs SDS log2 ratios) (log2 ratio difference); higher = more soluble in mitosis
HeLa Kyoto [2] = assay: solubility in G1/S (NP-40 vs SDS abundance) (log2 ratio); higher = more soluble; conditions: cell cycle stage: G1/S
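Throughout, for solubility change mitosis vs G1/S (difference of NP-40 vs SDS log2 ratios): synchronized HeLa Kyoto cells (double thymidine block for G1/S, nocodazole release for mitosis), protein amounts in NP-40 versus SDS lysates quantified by mass spectrometry, three biological replicates.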
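Throughout, for solubility in G1/S (NP-40 vs SDS abundance): HeLa Kyoto cells arrested at G1/S by double thymidine block, proteins quantified by TMT10plex mass spectrometry in mild NP-40 versus SDS extracts, three biological replicates.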

Row | Sequence | solubility change mitosis (log2) (HeLa Kyoto [1]) | solubility in G1/S (log2) (HeLa Kyoto [2])
1 | MGVALRKLTQWTAAGHGTGILEITPLNEAILKEIIVFVESFIYKHPQEAKFVFVEPLEWNTSLAPSAFESGYVVSETTVKSEEVDKNGQPLLFLSVPQIKIRSFGQLSRLLLIAKTGKLKEAQACVEANRDPIVKILGSDYNTMKENSIALNILGKITRDDDPESEIKMKIAMLLKQLDLHLLNHSLKHISLEISLSPMTVKKDIELLKRFSGKGNQTVLESIEYTSDYEFSNGCRAPPWRQIRGEICYVLVKPHDGETLCITCSAGGVFLNGGKTDDEGDVNYERKGSIYKNLVTFLREKSPKFSENMSKLGISFSEDQQKEKDQLGKAPKKEEAAALRKDISGSDKRSLEKNQINFWRNQMTKRWEPSLNWKTTVNYKGKGSAKEIQEDKHTGKLEKPRPSVSHGRAQLLRKSAEKIEETVSDSSSESEEDEEPPDHRQEASADLPSEYWQIQKLVKYLKGGNQTATVIALCSMRDFSLAQETCQLAIRDVGGLEVLINLLETDEVKCKIGSLKILKEISHNPQIRQNIVDLGGLPIMVNILDSPHKSLKCLAAETIANVAKFKRARRVVRQHGGITKLVALLDCAHDSTKPAQSSLYEARDVEVARCGALALWSCSKSHTNKEAIRKAGGIPLLARLLKTSHENMLIPVVGTLQECASEENYRAAIKAERIIENLVKNLNSENEQLQEHCAMAIYQCAEDKETRDLVRLHGGLKPLASLLNNTDNKERLAAVTGAIWKCSISKENVTKFREYKAIETLVGLLTDQPEEVLVNVVGALGECCQERENRVIVRKCGGIQPLVNLLVGINQALLVNVTKAVGACAVEPESMMIIDRLDGVRLLWSLLKNPHPDVKASAAWALCPCIKNAKDAGEMVRSFVGGLELIVNLLKSDNKEVLASVCAAITNIAKDQENLAVITDHGVVPLLSKLANTNNNKLRHHLAEAISRCCMWGRNRVAFGEHKAVAPLVRYLKSNDTNVHRATAQALYQLSEDADNCITMHENGAVKLLLDMVGSPDQDLQEAAAGCISNIRRLALATEKARYT [ARMC4] | 0.00126 | 0.0866
2 | MSRRRFDCRSISGLLTTTPQIPIKMENFNNFYILTSKELGRGKFAVVRQCISKSTGQEYAAKFLKKRRRGQDCRAEILHEIAVLELAKSCPRVINLHEVYENTSEIILILEYAAGGEIFSLCLPELAEMVSENDVIRLIKQILEGVYYLHQNNIVHLDLKPQNILLSSIYPLGDIKIVDFGMSRKIGHACELREIMGTPEYLAPEILNYDPITTATDMWNIGIIAYMLLTHTSPFVGEDNQETYLNISQVNVDYSEETFSSVSQLATDFIQSLLVKNPEKRPTAEICLSHSWLQQWDFENLFHPEETSSSSQTQDHSVRSSEDKTSKSSCNGTCGDREDKENIPEDSSMVSKRFRFDDSLPNPHELVSDLLC [STK17B] | -0.161 | 0.0558
3 | MNLQAQPKAQNKRKRCLFGGQEPAPKEQPPPLQPPQQSIRVKEEQYLGHEGPGGAVSTSQPVELPPPSSLALLNSVVYGPERTSAAMLSQQVASVKWPNSVMAPGRGPERGGGGGVSDSSWQQQPGQPPPHSTWNCHSLSLYSATKGSPHPGVGVPTYYNHPEALKREKAGGPQLDRYVRPMMPQKVQLEVGRPQAPLNSFHAAKKPPNQSLPLQPFQLAFGHQVNRQVFRQGPPPPNPVAAFPPQKQQQQQQPQQQQQQQQAALPQMPLFENFYSMPQQPSQQPQDFGLQPAGPLGQSHLAHHSMAPYPFPPNPDMNPELRKALLQDSAPQPALPQVQIPFPRRSRRLSKEGILPPSALDGAGTQPGQEATGNLFLHHWPLQQPPPGSLGQPHPEALGFPLELRESQLLPDGERLAPNGREREAPAMGSEEGMRAVSTGDCGQVLRGGVIQSTRRRRRASQEANLLTLAQKAVELASLQNAKDGSGSEEKRKSVLASTTKCGVEFSEPSLATKRAREDSGMVPLIIPVSVPVRTVDPTEAAQAGGLDEDGKGPEQNPAEHKPSVIVTRRRSTRIPGTDAQAQAEDMNVKLEGEPSVRKPKQRPRPEPLIIPTKAGTFIAPPVYSNITPYQSHLRSPVRLADHPSERSFELPPYTPPPILSPVREGSGLYFNAIISTSTIPAPPPITPKSAHRTLLRTNSAEVTPPVLSVMGEATPVSIEPRINVGSRFQAEIPLMRDRALAAADPHKADLVWQPWEDLESSREKQRQVEDLLTAACSSIFPGAGTNQELALHCLHESRGDILETLNKLLLKKPLRPHNHPLATYHYTGSDQWKMAERKLFNKGIAIYKKDFFLVQKLIQTKTVAQCVEFYYTYKKQVKIGRNGTLTFGDVDTSDEKSAQEEVEVDIKTSQKFPRVPLPRRESPSEERLEPKREVKEPRKEGEEEVPEIQEKEEQEEGRERSRRAAAVKATQTLQANESASDILILRSHESNAPGSAGGQASEKPREGTGKSRRALPFSEKKKKTETFSKTQNQENTFPCKKCGR [ELMSAN1] | 0.257 | -0.0645
4 | MESTAYPLNLSLKEEEEEEEIQSRELEDGPADMQKVRICSEGGWVPALFDEVAIYFSDEEWEVLTEQQKALYREVMRMNYETVLSLEFPFPKPDMITRLEGEEESQNSDEWQLQGGTSAENEESDVKPPDWPNPMNATSQFPQPQHFDSFGLRLPRDITELPEWSEGYPFYMAMGFPGYDLSADDIAGKFQFSRGMRRSYDAGFKLMVVEYAESTNNCQAAKQFGVLEKNVRDWRKVKPQLQNAHAMRRAFRGPKNGRFALVDQRVAEYVRYMQAKGDPITREAMQLKALEIAQEMNIPEKGFKASLGWCRRMMRRYDLSLRHKVPVPQHLPEDLTEKLVTYQRSVLALRRAHDYEVAQMGNADETPICLEVPSRVTVDNQGEKPVLVKTPGREKLKITAMLGVLADGRKLPPYIILRGTYIPPGKFPSGMEIRCHRYGWMTEDLMQDWLEVVWRRRTGAVPKQRGMLILNGFRGHATDSVKNSMESMNTDMVIIPGGLTSQLQVLDVVVYKPLNDSVRAQYSNWLLAGNLALSPTGNAKKPPLGLFLEWVMVAWNSISSESIVQGFKKCHISSNLEEEDDVLWEIESELPGGGEPPKDCDTESMAESN [POGK] | -0.0638 | -0.0733
5 | MCAQYCISFADVEKAHINIRDSIHLTPVLTSSILNQLTGRNLFFKCELFQKTGSFKIRGALNAVRSLVPDALERKPKAVVTHSSGNHGQALTYAAKLEGIPAYIVVPQTAPDCKKLAIQAYGASIVYCEPSDESRENVAKRVTEETEGIMVHPNQEPAVIAGQGTIALEVLNQVPLVDALVVPVGGGGMLAGIAITVKALKPSVKVYAAEPSNADDCYQSKLKGKLMPNLYPPETIADGVKSSIGLNTWPIIRDLVDDIFTVTEDEIKCATQLVWERMKLLIEPTAGVGVAAVLSQHFQTVSPEVKNICIVLSGGNVDLTSSITWVKQAERPASYQSVSV [SRR] | 0.0667 | 0.0946
6 | MAEGPEEARGHPPGQDDGGGDHEPVPSLRGPPTTAVPCPRDDPQAEPQAPGRPTAPGLAAAAAADKLEPPRELRKRGEAASGSGAELQEQAGCEAPEAAAPRERPARLSAREYSRQVHEWLWQSYCGYLTWHSGLAAFPAYCSPQPSPQSFPSGGAAVPQAAAPPPPQLGYYNPFYFLSPGAAGPDPRTAAGISTPAPVAGLGPRAPHVQASVRATPVTRVGSAAPSRSPSETGRQAGREYVIPSLAHRFMAEMVDFFILFFIKATIVLSIMHLSGIKDISKFAMHYIIEEIDEDTSMEDLQKMMVVALIYRLLVCFYEIICIWGAGGATPGKFLLGLRVVTCDTSVLIAPSRVLVIPSSNVSITTSTIRALIKNFSIASFFPAFITLLFFQHNRTAYDIVAGTIVVKRNGVR [FAM8A1] | 0.0402 | -0.0476
7 | MGLELYLDLLSQPCRAVYIFAKKNDIPFELRIVDLIKGQHLSDAFAQVNPLKKVPALKDGDFTLTESVAILLYLTRKYKVPDYWYPQDLQARARVDEYLAWQHTTLRRSCLRALWHKVMFPVFLGEPVSPQTLAATLAELDVTLQLLEDKFLQNKAFLTGPHISLADLVAITELMHPVGAGCQVFEGRPKLATWRQRVEAAVGEDLFQEAHEVILKAKDFPPADPTIKQKLMPWVLAMIR [GSTT1] | -0.295 | 0.038
8 | MEDKRNIQIIEWEHLDKKKFYVFGVAMTMMIRVSVYPFTLIRTRLQVQKGKSLYHGTFDAFIKILRADGITGLYRGFLVNTFTLISGQCYVTTYELTRKFVADYSQSNTVKSLVAGGSASLVAQSITVPIDVVSQHLMMQRKGEKMGRFQVRGNPEGQGVVAFGQTKDIIRQILQADGLRGFYRGYVASLLTYIPNSAVWWPFYHFYAEQLSYLCPKECPHIVFQAVSGPLAAATASILTNPMDVIRTRVQVEGKNSIILTFRQLMAEEGPWGLMKGLSARIISATPSTIVIVVGYESLKKLSLRPELVDSRHW [SLC25A44] | -0.117 | -0.146
9 | MALMQELYSTPASRLDSFVAQWLQPHREWKEEVLDAVRTVEEFLRQEHFQGKRGLDQDVRVLKVVKVGSFGNGTVLRSTREVELVAFLSCFHSFQEAAKHHKDVLRLIWKTMWQSQDLLDLGLEDLRMEQRVPDALVFTIQTRGTAEPITVTIVPAYRALGPSLPNSQPPPEVYVSLIKACGGPGNFCPSFSELQRNFVKHRPTKLKSLLRLVKHWYQQYVKARSPRANLPPLYALELLTIYAWEMGTEEDENFMLDEGFTTVMDLLLEYEVICIYWTKYYTLHNAIIEDCVRKQLKKERPIILDPADPTLNVAEGYRWDIVAQRASQCLKQDCCYDNRENPISSWNVKRARDIHLTVEQRGYPDFNLIVNPYEPIRKVKEKIRRTRGYSGLQRLSFQVPGSERQLLSSRCSLAKYGIFSHTHIYLLETIPSEIQVFVKNPDGGSYAYAINPNSFILGLKQQIEDQQGLPKKQQQLEFQGQVLQDWLGLGIYGIQDSDTLILSKKKGEALFPAS [OASL] | 0.156 | -0.811
10 | MAASRSAGEAGPGGSQGRVVRMKRRGGRGPRRGPAGGGEKALKRLKLAVEEFVHATSEGEAPGGCEGRGAPVSFRPGGRKSRKELRKEKRHLRKARRLQRTAGPEQGPGLGGRSGAEEASGHRQDTEERARPAPSRDPSPPRKPRPSRVKAKATAATAKTRPSAAATAAARKRALLAANEEEDREIRKLERCLGLNKRKKKDGSSSVPLSFARDGLDYILGALESGKNSGLYDSSGEEEEDAGQTLPESDLESDSQDESEEEEEGDVEKEKKAQEAEAQSEDDDEDTEEEQGEEKEKGAQEKRRGKRVRFAEDEEKSENSSEDGDITDKSLCGSGEKYIPPHVRQAEETVDFKKKEELERLKKHVKGLLNRLSEPNMASISGQLEELYMAHSRKDMNDTLTSALMGACVTASAMPSRLMMEHVLLVSILHHTVGIEVGAHFLEAVVRKFDAIYKYGSEGKECDNLFTVIAHLYNFHVVQSLLIFDILKKLIGTFTEKDIELILLMLKNVGFSLRKDDALSLKELITEAQTKASGAGSEFQDQTRIRFMLETMLALKNNDMRKIPGYDPEPVEKLRKLQRALVRNAGSGSETQLRVSWDSVLSAEQTGRWWIVGSAWSGAPMIDNSHHTHLQKQLVGTVSSKILELARKQRMNTDIRRNIFCTIMTSEDFLDAFEKLLKLGLKDQQEREIIHVLMDCCLQEKTYNPFYAFLASKFCEYERRFQMTFQFSIWDKFRDLENLPATNFSNLVHLVAHLLKTKSLSLSILKVVEFSELDKPRVRFLRKVLSILLMETEVEDLSLIFTRVSDNPKLGVLREGLKLFISHFLLKNAQAHRSADEANVLREKADLATKCLQGKASLRM [NOM1] | 0.759 | -1
